Data taken from PMC2592539.
Square brackets hold non-standard residues; d marks the D form. Side chains are listed from the residue outwards. Ends that are not written are not given here. * marks the point of attachment. Biotin = O=C1N[C@H]2[C@H](CS[C@H]2CCCCC(=O)*)N1; Bpa = N[C@@H](Cc1ccc(C(=O)c2ccccc2)cc1)C(=O)O; PEG linker = not defined here

What was measured:
[1] = molecular target: HLA-A0201 MHC class I molecule on T2 cells (human (endogenous in T2) | human); assay: flow cytometry on cells; T2 cells treated with 1 uM biotinylated peptide for 16 hours, no UV; peptide on the cell surface stained with anti-biotin AlexaFluor 488 antibody
[2] = molecular target: HLA-A0201 MHC class I molecule on T2 cells (human (endogenous in T2) | human); assay: flow cytometry on cells; internalization study: T2 cells with 1 uM biotinylated peptide at 37 degrees, peptide left on; surface peptide by anti-biotin staining at 2, 6 and 24 h
[3] = molecular target: HLA-A0201 MHC class I molecule on T2 cells (human (endogenous in T2) | human); assay: flow cytometry on cells; T2 cells treated with 1 uM biotinylated peptide for 16 hours, then exposed to UV light; peptide on the cell surface stained with anti-biotin AlexaFluor 488 antibody
[4] = molecular target: HLA-A0201 MHC class I molecule on T2 cells (human (endogenous in T2) | human); assay: flow cytometry on cells; internalization study (pulse-chase): T2 cells with 1 uM biotinylated peptide for 2 hr at 37 degrees, washed twice, incubated a further 4 or 22 hours; surface peptide by anti-biotin staining

B1: WT1B-S1Fbz-bio (peptide)
peptide: [Bpa]LGEQ([PEG linker-Biotin])QYSV
modifications: reading uncertain
B1 was tested, and the mean fluorescence (anti-biotin) [1] was 41.5, the mean fluorescence (anti-biotin) at 2 h [2] was 8.74 and the mean fluorescence (anti-biotin) at 6 h [2] was 44.4. For the same binder, the mean fluorescence (anti-biotin) at 24 h [2] was 23.4, the mean fluorescence (anti-biotin) [3] was 43.2 and the mean fluorescence (anti-biotin) at 6 h, washed after 2 h [4] was 6.69.
